According to patent US20210101970A1 (Pfizer, published 2021):
One block for each binder: values may come before it.

Key:
[1] = target: T1, XC251; assay: FACS on cells expressing the CXCR5 construct
T1 construct: whole, on cells; also called hCXCR5-mL3

[2] = target: T2, mouse CXCR5 (mouse, UniProt Q04683 1-374); assay: FACS on cells expressing the CXCR5 construct
T2 construct: also called mCXCR5
T2 sequence: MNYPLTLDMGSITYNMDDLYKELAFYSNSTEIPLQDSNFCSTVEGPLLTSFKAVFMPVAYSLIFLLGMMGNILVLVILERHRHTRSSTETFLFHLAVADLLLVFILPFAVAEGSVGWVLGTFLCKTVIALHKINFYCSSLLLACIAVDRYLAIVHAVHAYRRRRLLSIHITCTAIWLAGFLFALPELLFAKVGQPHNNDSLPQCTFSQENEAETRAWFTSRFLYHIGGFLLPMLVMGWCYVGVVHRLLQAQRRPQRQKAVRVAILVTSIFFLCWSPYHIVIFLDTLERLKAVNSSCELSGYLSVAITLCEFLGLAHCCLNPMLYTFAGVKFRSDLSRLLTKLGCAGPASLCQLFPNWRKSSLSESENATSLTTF

[3] = target: T3, XC255; assay: FACS on cells expressing the CXCR5 construct
T3 construct: whole, on cells; also called hCXCR5-mN-mL3

[4] = target: T4, XC256; assay: FACS on cells expressing the CXCR5 construct
T4 construct: whole, on cells; also called hCXCR5-mN-mL2

[5] = target: T5, XC254; assay: FACS on cells expressing the CXCR5 construct
T5 construct: whole, on cells; also called hCXCR5-mL2-mL3

[6] = target: T6, human CXCR5 (human, UniProt P32302 1-372); assay: FACS on cells expressing the CXCR5 construct
T6 construct: also called hCXCR5; C-X-C chemokine receptor type 5
T6 sequence: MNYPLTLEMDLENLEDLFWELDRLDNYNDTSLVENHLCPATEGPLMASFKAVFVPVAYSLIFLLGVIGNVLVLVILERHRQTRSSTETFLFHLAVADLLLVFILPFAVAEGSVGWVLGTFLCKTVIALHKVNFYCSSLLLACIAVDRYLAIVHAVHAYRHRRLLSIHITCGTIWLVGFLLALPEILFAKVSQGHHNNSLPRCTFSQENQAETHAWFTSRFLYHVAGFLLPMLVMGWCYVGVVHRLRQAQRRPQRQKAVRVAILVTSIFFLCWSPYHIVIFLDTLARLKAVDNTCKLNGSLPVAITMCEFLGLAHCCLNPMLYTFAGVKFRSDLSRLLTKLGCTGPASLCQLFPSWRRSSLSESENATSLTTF

[7] = target: T7, XC252; assay: FACS on cells expressing the CXCR5 construct
T7 construct: whole, on cells; also called hCXCR5-mL2

[8] = target: T8, XC253; assay: FACS on cells expressing the CXCR5 construct
T8 construct: whole, on cells; also called hCXCR5-mN

[9] = target: T6, human CXCR5; assay: flow cytometry on Raji cells, gMFI titration
Procedure: The apparent affinity of antibody binding to Raji cells was calculated as the EC₅₀ of equilibrium binding titration curves in which the geometric mean fluorescence intensity (gMFI) of the antigen binding population was quantified by flow cytometry and the results are shown in Table 2.

[10] = target: T2, mouse CXCR5; assay: flow cytometry on cells expressing mouse CXCR5
[11] = target: T9, XC280 (human, UniProt P32302 2-372); assay: flow cytometry on HEK-293T cells transiently expressing the FLAG-tagged mutein; ratio of gMFI of the antibody to gMFI of anti-FLAG PE
T9 construct: also called hCXCR5 W19K
T9 sequence: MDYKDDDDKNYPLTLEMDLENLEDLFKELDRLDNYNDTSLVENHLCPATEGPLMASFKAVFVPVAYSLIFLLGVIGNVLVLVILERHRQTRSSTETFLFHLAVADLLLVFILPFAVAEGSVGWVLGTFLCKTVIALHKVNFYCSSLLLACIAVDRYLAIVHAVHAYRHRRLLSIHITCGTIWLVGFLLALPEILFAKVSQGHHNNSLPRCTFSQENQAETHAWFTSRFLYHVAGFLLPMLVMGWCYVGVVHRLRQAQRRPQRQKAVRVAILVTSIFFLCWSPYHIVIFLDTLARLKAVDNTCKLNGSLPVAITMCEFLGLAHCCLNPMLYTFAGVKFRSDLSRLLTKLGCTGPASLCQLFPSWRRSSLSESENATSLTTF
Procedure: The cells were analyzed by flow cytometry using an Accuri (BD Biosciences Franklin Lakes, N.J.). The geometric mean fluorescence intensity (gMFI) was determined and the ratio for the gMFI of each CXCR5 antibody and anti-flag was calculated.

[12] = target: T6, human CXCR5; assay: cell-based or functional assay
[13] = target: T6, human CXCR5; assay: cell-based or functional assay; remark: listed apart in the source
[14] = target: T6, human CXCR5; assay: cell-based or functional assay; remark: listed apart in the source
[15] = target: T10, cynomolgus monkey CXCR5 (cynomolgus monkey, UniProt P32302 1-372 (human entry)); assay: flow cytometry, cynomolgus PBMC Tfh-like cells
T10 construct: also called cynoCXCR5; NHP CXCR5
T10 chain: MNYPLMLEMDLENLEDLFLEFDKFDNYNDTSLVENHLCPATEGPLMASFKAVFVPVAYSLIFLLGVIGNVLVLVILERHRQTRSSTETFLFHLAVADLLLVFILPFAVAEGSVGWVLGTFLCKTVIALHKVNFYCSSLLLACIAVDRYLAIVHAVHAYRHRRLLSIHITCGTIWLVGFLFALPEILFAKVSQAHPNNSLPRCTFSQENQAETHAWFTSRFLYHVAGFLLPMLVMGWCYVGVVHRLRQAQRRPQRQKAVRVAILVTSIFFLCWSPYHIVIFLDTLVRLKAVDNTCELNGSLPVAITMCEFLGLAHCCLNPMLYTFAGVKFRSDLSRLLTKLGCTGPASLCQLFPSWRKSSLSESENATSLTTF
Procedure: (§1) The apparent affinity for cell surface CXCR5 of chimeric and humanized CXCR5 fucosylated and afucosylated antibodies was assessed. More specifically, to determine the apparent affinity of chimeric and humanized CXCR5 antibodies to CXCR5-expressing cells, cell binding experiments were performed on human and cynomolgus monkey peripheral blood mononuclear cells (PBMCs) and human tonsillar mononuclear cells (TMCs). The apparent affinity of CXCR5 mab binding to CXCR5+ cells (B cells, bona fide Tfh cells, and circulating Tfh-like cells) was calculated as the EC50 of equilibrium binding titration curves in which the geometric mean fluorescence intensity (gMFI) of the antigen binding population was quantified by flow cytometry.
(§2) Following isolation, PBMCs were plated at a density of 1.0×10⁵ cells per well and CD4+ TMCs were plated at a density of 2.0×10⁵ cells per well in isolation buffer (PBS containing 1% FBS and 1 mM EDTA) in 96 well U-bottom plates. The plates were then centrifuged at 1500 rpm for 5 minutes at room temperature. PBMCs and CD4+ TMCs were resuspended in Fluorescence-activated cell sorting (FACS) buffer (PBS containing 1% FBS) containing human crystallized fragment Fc block (2 μL per well; Biolegend) and 4-fold serial dilutions of the antibodies (11-point dilution series, beginning at 5000 ng/mL for PBMCs and 312.5 ng/mL for CD4+ TMCs) and incubated on ice for 2 hours. […]

[16] = target: T6, human CXCR5; assay: flow cytometry, human PBMC Tfh-like cells
Procedure: as §1, §2

[17] = target: T6, human CXCR5; assay: flow cytometry, human PBMC B cells
[18] = target: T6, human CXCR5; assay: flow cytometry, human tonsil Tfh cells
Procedure: Following centrifugation, red blood cell lysis was performed on the pellet using an ammonium chloride lysis buffer. Platelets were removed using a low speed centrifugation (200×g) for 10 minutes in Phosphate-Buffered Saline (PBS)/2% FBS/2 mM Ethylenediaminetetraacetic acid (EDTA). CD4+ T cells were purified out of the TMC mixture using an EasySep™ Human CD4+ T Cell Enrichment Kit, according to the manufacturer's instructions ([…] Technologies, Vancouver, BC, Canada).
(§3) Following isolation, PBMCs were plated at a density of 1.0×10⁵ cells per well and CD4+ TMCs were plated at a density of 2.0×10⁵ cells per well in isolation buffer (PBS containing 1% FBS and 1 mM EDTA) in 96 well U-bottom plates. The plates were then centrifuged at 1500 rpm for 5 minutes at room temperature. PBMCs and CD4+ TMCs were resuspended in Fluorescence-activated cell sorting (FACS) buffer (PBS containing 1% FBS) containing human crystallized fragment Fc block (2 μL per well; Biolegend) and 4-fold serial dilutions of the antibodies (11-point dilution series, beginning at 5000 ng/mL for PBMCs and 312.5 ng/mL for CD4+ TMCs) and incubated on ice for 2 hours. PBMCs and CD4+ TMCs were then washed with FACS buffer 3 times and resuspended in 50-100 μL of FACs buffer containing fluorescent-conjugated antibodies for staining lymphocyte subsets and a fluorescent-conjugated secondary antibody against human Ig to detect CXCR5 monoclonal antibodies (mAbs). After incubation for 30 minutes at 4° C., PBMCs and CD4+ TMCs were washed with FACS buffer 2 times and resuspended in 125 μL of 0.5% paraformaldehyde (PFA) in PBS. Plates were stored at 4° C. until analysis by flow cytometry (BD LSRFortessa™ Cell Analyzer, BD Biosciences, Franklin Lakes, N.J.).
(§4) The cell binding titration curves were generated by plotting the gMFI of the antigen binding population against the log of CXCR5 antibody concentration. EC₅₀ values were determined using GraphPad Prism® (version 6.0, GraphPad Software, Inc, San Diego, Calif.) nonlinear-regression curve fits and a sigmoidal log of agonist dose-response model, according to the following equation

[19] = target: T10, cynomolgus monkey CXCR5; assay: flow cytometry, cynomolgus PBMC B cells
Procedure: as §1, §3, §4

[20] = target: T6, human CXCR5; assay: flow cytometry, human PBMC B cells; remark: listed apart in the source
Procedure: as §1, §3, §4

[21] = target: T6, human CXCR5; assay: flow cytometry, B cells from human PBMCs (FIG. 5); fucosylated
[22] = target: T10, cynomolgus monkey CXCR5; assay: cell-based or functional assay
[23] = target: T6, human CXCR5; assay: flow cytometry, B cells from human PBMCs (FIG. 5); comparator 11A7

GMFI [1]: 19900 GMFI
GMFI [2]: 958 GMFI
GMFI [3]: 1340 GMFI
GMFI [4]: 1380 GMFI
GMFI [5]: 16900 GMFI
GMFI [6]: 150000 GMFI
GMFI [7]: 27000 GMFI
GMFI [8]: 1260 GMFI
EC50 [9]: 650 pM
binding result [10]: no binding
% Inhibition CXCL13 [12]: 102%
EC50, stimulation of CXCL13-inhibited cAMP production [12]: 1100 pM
Ca2+ flux IC50 [13]: 11400 pM
ADCC Activity Average EC50, Human B Cells [14]: 2590 pM
B1: 16D7 (reference antibody) (antibody, human IgG1, kappa, V domains shown)
VH: QVQLKESGPGLVAPSESLSITCTVSGFSLIDYGVNWIRQPPGKGLEWLGVIWGDGTTYYNPSLKSRLSISKDNSKSQVFLKVTSLTTDDTAMYYCARIVYWGQGTLVTVSA
VL: DIVMTQAAPSVAVTPGASVSISCRSSKSLLHSSGKTYLYWFLQRPGQSPQLLIYRLSSLASGVPDRFSGSGSGTAFTLRISRVEAEDVGVYYCMQHLEYPYTFGGGTKLEIKR
notes: fucosylated; also called S16D7
binding result [11]: no binding (tested: 1 or 3 µg/ml (not on the sheet))

EC50 [15]: 5.65 pM
EC50 [16]: 5.92 pM
fold greater affinity than 2C9 [17]: ≥ 10 fold
fold greater affinity than 11A7 [17]: ≥ 100 fold
fold higher affinity than 2C9 [17]: ~10 fold
fold higher affinity than 11A7 [17]: ~100 fold
EC50 [18]: 8.25 pM
EC50 [19]: 4.13 pM
EC50 [20]: 7.08 pM
% Inhibition CXCL13 [12]: 121%
EC50, stimulation of CXCL13-inhibited cAMP production [12]: 753 pM
EC50 [21]: 9.63 pM
ADCC Activity Average EC50, Human B Cells [14]: 254 pM
ADCC Activity Average EC50, Human Tfh Cells [14]: 0.77 pM
ADCC Activity Average EC50, Human Tfh-like Cells [14]: 7.98 pM
ADCC Activity Average EC50, NHP B Cells [22]: 39.1 pM
B2: Humanized 11G2 154/155 (antibody, human IgG1, kappa, V domains shown)
VH: EVQLVESGGGLVQPGGSLRLSCAASGFTFTDFYMSWVRQAPGKGLEWVGFIRNKANGYTTEYSASVKGRFTISRDNAKNSLYLQMNSLRAEDTAVYYCARVYGSTLHYWGQGTLVTVSS
VL: DIQMTQSPSSLSASVGDRVTITCRASESVEYHGTSLMHWYQQKPGKAPKLLIYAASNVESGVPSRFSGSGSGTDFTLTISSLQPEDFATYYCQQSRKVPWTFGQGTKVEIKR
notes: fucosylated human IgG1/kappa; also called h11G2 VL XC154/VH XC155

binding result [10]: no binding
EC50 [20]: 564 pM
% Inhibition CXCL13 [12]: 106%
EC50, stimulation of CXCL13-inhibited cAMP production [12]: 1400 pM
EC50 [23]: 926 pM
ADCC Activity Average EC50, Human B Cells [14]: 4.35 pM
B3: 11A7 (reference antibody) (antibody, human IgG1, lambda, V domains shown)
VH: EVQLVESGGGLVQPGGSLRLSCAASGFTVSSNYMSWVRQAPGKGLEWVSVIYSGGSTYYADSVKGRFTISRHNSKNTLYLQMNSLRAEDTAVYYCARGYVVWGQGTLVTVSS
VL: QPVLTQPPSVSKDLRQTATLTCTGNSNNVGNQGATWLQQHQGHPPKLLSYKNNNRPSGISERFSASRSGNTASLTITGLQPEDEADYYCSAWDSSLSAWVFGGGTQLTVLG
notes: fucosylated
binding result [11]: no binding (tested: 1 or 3 µg/ml (not on the sheet))
